We go through one substance from article PMC6376876.

This data set concerns CC(=O)Oc1ccc([N+](=O)[O-])cc1. The data set is described as follows: purified protein.

On to LsALDH16 (Loktanella sp. 3ANDIMAR09), for which the Km was found to be 1740 µM, the Vmax is 7.9 µmol/min/mg, the kcat was 10.6 ± 1.6 s⁻¹ and the kcat/Km came out at 6000 ± 2000 M⁻¹ s⁻¹.

For orientation: Km means the substrate concentration at which the rate is half of its maximum. Usually Vmax stands for the rate approached at saturating substrate. For orientation: kcat means the number of substrate molecules converted per active site and unit of time at saturation. As usually defined, the kcat/Km is the second-order rate constant that governs catalysis at low substrate concentration.
